# From the supplement of paper PMC7125110
# ± gives the standard error. For some of these results: Fewer inactive variants are shown than the library holds.
# B1: glmS ribozyme (parent)
# chain: AUAAAAGCGCCAGAACUACAGAAAUGUAGUUGACGAGGAGGAGGUUUAUCGAAUUUUCGGCGGAUGCCUCCAAA
# Columns and labels:
# Details in all cases: with glucosamine-6-phosphate
# glucosamine-6-phosphate [1] = variants of: B1; experiment: kcat; higher = faster cleavage; RNA array
# Procedure, shortened: (§1)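 In situ transcription by E. coli RNA polymerase produced barcoded ribozyme variants on sequenced MiSeq chips, and a hybridised Cy3 probe tracked them at 37 °C. Glucosamine-6-phosphate was flowed in at 40 μM to 10 mM in HEPES/KCl/Mg(OAc)2 buffer. kcat and KM were taken from weighted Michaelis–Menten fits of kobs values from exponential decay fits.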
# glucosamine-6-phosphate [2] = variants of: B1; experiment: self-cleavage kobs at 40 uM GlcN6P; higher = faster cleavage; RNA array
# Procedure, shortened: as §1
# glucosamine-6-phosphate [3] = variants of: B1; experiment: self-cleavage kobs at 160 uM GlcN6P; higher = faster cleavage; RNA array
# Procedure, shortened: as §1
# glucosamine-6-phosphate [4] = variants of: B1; experiment: self-cleavage kobs at 640 uM GlcN6P; higher = faster cleavage; RNA array
# Procedure, shortened: as §1
# glucosamine-6-phosphate [5] = variants of: B1; experiment: self-cleavage kobs at 2500 uM GlcN6P; higher = faster cleavage; RNA array
# Procedure, shortened: as §1
# glucosamine-6-phosphate [6] = variants of: B1; experiment: self-cleavage kobs at 10000 uM GlcN6P; higher = faster cleavage; RNA array
# Procedure, shortened: as §1
# glucosamine-6-phosphate [7] = variants of: B1; experiment: KM; higher = weaker cofactor use; RNA array
# Procedure, shortened: as §1
Variant,kcat (glucosamine-6-phosphate [1]),self-cleavage kobs at 40 uM GlcN6P (glucosamine-6-phosphate [2]),self-cleavage kobs at 160 uM GlcN6P (glucosamine-6-phosphate [3]),self-cleavage kobs at 640 uM GlcN6P (glucosamine-6-phosphate [4]),self-cleavage kobs at 2500 uM GlcN6P (glucosamine-6-phosphate [5]),self-cleavage kobs at 10000 uM GlcN6P (glucosamine-6-phosphate [6]),KM (glucosamine-6-phosphate [7])
U30A C67U,0.00166 ± 0.00065 s⁻¹,5.62e-05 ± 1.2e-05 s⁻¹,0.000105 ± 2.1e-05 s⁻¹,0.00036 ± 6.4e-05 s⁻¹,0.00118 ± 0.00017 s⁻¹,0.00106 ± 0.00034 s⁻¹,
U30A C67G,0.000166 ± 1.4e-05 s⁻¹,,,5.03e-05 ± 5.9e-06 s⁻¹,9.16e-05 ± 8.4e-06 s⁻¹,0.00015 ± 1.3e-05 s⁻¹,1650 ± 330 µM
G29C U57A,4.62e-05 ± 8e-06 s⁻¹,,,,,3.78e-05 ± 1.1e-05 s⁻¹,
G26U G40U,0.000912 ± 0.00012 s⁻¹,0.000119 ± 2.3e-05 s⁻¹,,0.000586 ± 0.00016 s⁻¹,0.00144 ± 0.00066 s⁻¹,0.000883 ± 0.00019 s⁻¹,272 ± 64 µM
G29U A64C,1.56e-05 ± 2.5e-06 s⁻¹,< 1e-05 s⁻¹,,,,,
U30A A33C,6.48e-05 ± 3e-06 s⁻¹,,,,,4.35e-05 ± 1.2e-05 s⁻¹,4930 ± 560 µM
C19A G59U,0.000115 ± 2.9e-05 s⁻¹,,,,,3.11e-05 ± 1.5e-05 s⁻¹,
G29A G66U,0.000177 ± 5.1e-05 s⁻¹,,,6.51e-05 ± 2e-05 s⁻¹,6.95e-05 ± 1.9e-05 s⁻¹,0.00015 ± 1.9e-05 s⁻¹,
G29A U31A,0.00193 ± 0.00042 s⁻¹,6.33e-05 ± 1.9e-05 s⁻¹,0.000184 ± 7.5e-05 s⁻¹,0.00109 ± 0.00022 s⁻¹,0.00129 ± 0.00029 s⁻¹,0.00165 ± 0.00037 s⁻¹,1110 ± 410 µM
G29U C68U,0.0008 ± 6.2e-05 s⁻¹,2.51e-05 ± 1e-05 s⁻¹,6.87e-05 ± 1e-05 s⁻¹,0.00022 ± 2.5e-05 s⁻¹,0.000435 ± 5.5e-05 s⁻¹,0.000719 ± 7.8e-05 s⁻¹,1710 ± 230 µM
G29U G37C,1.83e-05 ± 2.2e-06 s⁻¹,,,,,,
G29C C67A C71U,0.0001 ± 1.5e-05 s⁻¹,,,0.000116 ± 2.2e-05 s⁻¹,7.49e-05 ± 1.9e-05 s⁻¹,0.000106 ± 1.9e-05 s⁻¹,
G29U U56G,0.00364 ± 0.0012 s⁻¹,6.41e-05 ± 1.1e-05 s⁻¹,0.000127 ± 1.6e-05 s⁻¹,0.000648 ± 9.8e-05 s⁻¹,0.00118 ± 0.0002 s⁻¹,0.00283 ± 0.00035 s⁻¹,3840 ± 1700 µM
C16U C68G,8.6e-05 ± 6.4e-06 s⁻¹,,,5.77e-05 ± 1e-05 s⁻¹,8.4e-05 ± 1e-05 s⁻¹,7.86e-05 ± 9.3e-06 s⁻¹,307 ± 140 µM
G29C A52U C70G,2.41e-05 ± 5.5e-06 s⁻¹,< 1e-05 s⁻¹,,,,,
U30A G37A,0.000308 ± 0.00011 s⁻¹,,3.75e-05 ± 1.2e-05 s⁻¹,6.25e-05 ± 1.2e-05 s⁻¹,0.000141 ± 2.9e-05 s⁻¹,0.000302 ± 7.7e-05 s⁻¹,
C16U A64U,9.47e-05 ± 1.3e-05 s⁻¹,,,,7.64e-05 ± 1.2e-05 s⁻¹,8e-05 ± 6.6e-06 s⁻¹,

Variant,kcat (glucosamine-6-phosphate [1]),self-cleavage kobs at 40 uM GlcN6P (glucosamine-6-phosphate [2]),self-cleavage kobs at 160 uM GlcN6P (glucosamine-6-phosphate [3]),self-cleavage kobs at 640 uM GlcN6P (glucosamine-6-phosphate [4]),self-cleavage kobs at 2500 uM GlcN6P (glucosamine-6-phosphate [5]),self-cleavage kobs at 10000 uM GlcN6P (glucosamine-6-phosphate [6]),KM (glucosamine-6-phosphate [7])
C16G U54G,0.00297 ± 0.00074 s⁻¹,0.000177 ± 3.8e-05 s⁻¹,0.000312 ± 6.7e-05 s⁻¹,0.00211 ± 0.0008 s⁻¹,0.00175 ± 0.0004 s⁻¹,0.00291 ± 0.00046 s⁻¹,1080 ± 460 µM
G29A G32A C71A,0.000259 ± 0.00011 s⁻¹,,,6.03e-05 ± 2.6e-05 s⁻¹,,0.000201 ± 4.4e-05 s⁻¹,
G29A U30G,0.00554 ± 0.0022 s⁻¹,0.000159 ± 2.5e-05 s⁻¹,0.000288 ± 5.9e-05 s⁻¹,0.00125 ± 0.00029 s⁻¹,0.0021 ± 0.00068 s⁻¹,0.00513 ± 0.00085 s⁻¹,
C16U U69A,0.000112 ± 2.4e-05 s⁻¹,7.08e-05 ± 2e-05 s⁻¹,6.03e-05 ± 2e-05 s⁻¹,9.39e-05 ± 3.7e-05 s⁻¹,0.00022 ± 6.1e-05 s⁻¹,0.000115 ± 2e-05 s⁻¹,
C16U A42G,0.0195 ± 0.0085 s⁻¹,0.000669 ± 0.0001 s⁻¹,0.00221 ± 0.00057 s⁻¹,0.00699 ± 0.0019 s⁻¹,0.00906 ± 0.0027 s⁻¹,0.0355 ± 0.0076 s⁻¹,
G29A U57A,4e-05 ± 1.6e-06 s⁻¹,,,,,3.64e-05 ± 1.7e-05 s⁻¹,877 ± 180 µM
G29C C67A,0.000293 ± 7.2e-05 s⁻¹,,5.79e-05 ± 1.3e-05 s⁻¹,0.000128 ± 1.9e-05 s⁻¹,0.000163 ± 3.2e-05 s⁻¹,0.000363 ± 5.2e-05 s⁻¹,
U30A C70A,6.65e-05 ± 2.4e-05 s⁻¹,,,,7.75e-05 ± 1.6e-05 s⁻¹,5.12e-05 ± 1.3e-05 s⁻¹,
G29C C61A,1.76e-05 ± 3.3e-06 s⁻¹,< 1e-05 s⁻¹,,,,,
G29A U54A,0.00945 ± 0.0024 s⁻¹,0.000135 ± 2.1e-05 s⁻¹,,0.0011 ± 0.00037 s⁻¹,0.00422 ± 0.00084 s⁻¹,0.00745 ± 0.0014 s⁻¹,3150 ± 1100 µM
G29C U54C,0.00154 ± 0.00063 s⁻¹,6.42e-05 ± 1.4e-05 s⁻¹,0.000153 ± 2.5e-05 s⁻¹,0.000301 ± 7.9e-05 s⁻¹,0.000773 ± 0.00014 s⁻¹,0.0019 ± 0.00032 s⁻¹,
C16U U30A G40A,0.000118 ± 1.8e-05 s⁻¹,< 1e-05 s⁻¹,,4.8e-05 ± 2e-05 s⁻¹,8.29e-05 ± 2.2e-05 s⁻¹,,1030 ± 380 µM
G29C C71U,0.00146 ± 0.0004 s⁻¹,6.23e-05 ± 7.6e-06 s⁻¹,0.000119 ± 1.8e-05 s⁻¹,0.000356 ± 4.9e-05 s⁻¹,0.000805 ± 9.7e-05 s⁻¹,0.00143 ± 0.00015 s⁻¹,1590 ± 700 µM
C16U G44C,6.71e-05 ± 2.3e-05 s⁻¹,,,6.27e-05 ± 1.7e-05 s⁻¹,2.88e-05 ± 1.4e-05 s⁻¹,8.38e-05 ± 1.3e-05 s⁻¹,
C16U G44A,0.000353 ± 9.4e-05 s⁻¹,,,7.56e-05 ± 1.5e-05 s⁻¹,0.000392 ± 7.1e-05 s⁻¹,0.000277 ± 3.6e-05 s⁻¹,
G29A G38A C67A,1.79e-05 ± 4.1e-06 s⁻¹,,,,,,
